Data on 1 molecule can be found in US20230357790, “SELF-TARGETING EXPRESSION VECTOR” (Touchlight IP Limited, published 2023).

The data set has as its target Streptavidin (UniProt P22629 P22629:25-183). In words: no specific binding to plate; same buffer, room temp. As to conditions: chain copies: 4. On the procedure:
Obtained vectors were tested for binding a streptavidin-coated plate. The amount of DNA retained on the plate was detected by pico-green incorporation assay.
DNA was mixed with streptavidin-coated plate in binding buffer for 2 h, at room temp. Plate was washed 3× with same binding buffer, and the DNA that was bound to the plate was detected with PicoGreen assay in plate, without detaching DNA. [0490] Binding buffer (10×) [0491] 1 M NaCl [0492] 20 mM MgCl2 [0493] 50 mM KCl [0494] 10 mM CaCl2) [0495] 200 mM Tris-HCl, pH 7.6

Streptavidin, sequence (P22629 25-183, one chain of several): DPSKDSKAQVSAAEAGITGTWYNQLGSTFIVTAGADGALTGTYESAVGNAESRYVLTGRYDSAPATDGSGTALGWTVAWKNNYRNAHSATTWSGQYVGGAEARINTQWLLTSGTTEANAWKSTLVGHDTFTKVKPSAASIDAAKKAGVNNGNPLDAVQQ

B1: noApt vector cap (control) (structured_DNA)
DNA: CTGCTCACCTGCCAGCTACGGACGCGGAACGCGTCCGTAGCTGGCAGGTGAGCAG
On to B1, for which the binding result is given as “no binding”.
